The results in this text go back to the RNAGym collection of RNA variant scans (doi:10.7554/elife.90254).

B1: LINE1-mini (parent)
chain: GGCAGAGCUCAACACAGCGUGGCAAAGUGGCUGUGGCUAGACUGCC

Variants of B1 are the subject of this data set. Put plainly: self-cleavage, relative activity (ratio to wild type); higher = more cleavage; in vitro, sequencing; the parent is a self-cleaving ribozyme.
As for GGCGGAGCACAACACAGCGUGGCAAAGUGGCUGUGGCUAGACUGCC [A4G U9A], the self-cleavage was found to be 0.21. With GGCGGAGCGCAACACAGCGUGGCAAAGUGGCUGUGGCUAGACUGCC [A4G U9G], the self-cleavage amounted to 0.23. Consider GGCGGAGCCCAACACAGCGUGGCAAAGUGGCUGUGGCUAGACUGCC [A4G U9C], for which the self-cleavage worked out at 0.02. The value for GGCGGAGCUCAACACAGCGUGGCAAAGGGGCUGUGGCUAGACUGCC [A4G U28G] was 0.3; that for GGCGGAGCUCAACACAGCGUGGCAAAGAGGCUGUGGCUAGACUGCC [A4G U28A] was 0.13; that for GGCGGAGCUCAACACAGCGUGGCAAAGCGGCUGUGGCUAGACUGCC [A4G U28C] was 1.09. The value for GGCGGAGCUCAACACAGCGUGGCAAAGUGGCUGGGGCUAGACUGCC [A4G U34G] was 0.08. With GGCGGAGCUCAACACAGCGUGGCAAAGUGGCUGAGGCUAGACUGCC [A4G U34A] the figure was 0.07; with GGCGGAGCUCAACACAGCGUGGCAAAGUGGCUGCGGCUAGACUGCC [A4G U34C], 0.12; with GGCGGAGCUCAACACAGCGAGGCAAAGUGGCUGUGGCUAGACUGCC [A4G U20A], 0.19. GGCGGAGCUCAACACAGCGCGGCAAAGUGGCUGUGGCUAGACUGCC [A4G U20C]: the self-cleavage was 0.48.

Consider GGCGGAGCUCAACACAGCGGGGCAAAGUGGCUGUGGCUAGACUGCC [A4G U20G], for which the self-cleavage turned out to be 0.23.

GGCUGCGCUCAACACAGCGUGGCAAAGUGGCUGUGGCUAGACUGCC [A4U A6C]: the self-cleavage came out at 0.06.

On to GGCUGGGCUCAACACAGCGUGGCAAAGUGGCUGUGGCUAGACUGCC [A4U A6G], for which the self-cleavage was determined as 0.16.

On to GGCGGAGCUCAACACAGCGUGGCAAACUGGCUGUGGCUAGACUGCC [A4G G27C], for which the self-cleavage was determined as 0.24. With GGCGGAGCUCAACACAGCGUGGCAAAAUGGCUGUGGCUAGACUGCC [A4G G27A], the self-cleavage was determined as 0.4. Turning to GGCGGAGCUCAACACAGCGUGGCAAAUUGGCUGUGGCUAGACUGCC [A4G G27U], the self-cleavage was found to be 0.31. With GGCGGAGCUCAACACAGCGUGGCAAAGUGGCUUUGGCUAGACUGCC [A4G G33U] the figure was 0.16; with GGCGGAGCUCAACACAGCGUGGCAAAGUGGCUCUGGCUAGACUGCC [A4G G33C], 0.07.

Turning to GGCGGAGCUCAACACAGCGUGGCAAAGUGGCUAUGGCUAGACUGCC [A4G G33A], the self-cleavage was 0.12. As for GGCGGAGCUCAACACAGCGUCGCAAAGUGGCUGUGGCUAGACUGCC [A4G G21C], the self-cleavage was 0.24. Regarding GGCGGAGCUCAACACAGCGUUGCAAAGUGGCUGUGGCUAGACUGCC [A4G G21U], the self-cleavage is 0.68.

As for GGCGGAGCUCAACACAGCGUAGCAAAGUGGCUGUGGCUAGACUGCC [A4G G21A], the self-cleavage was 1.05. The value for GGCGGAGCUCAACACAGCGUGACAAAGUGGCUGUGGCUAGACUGCC [A4G G22A] was 1.25; that for GGCGGAGCUCAACACAGCGUGUCAAAGUGGCUGUGGCUAGACUGCC [A4G G22U] was 1.14. The value for GGCGGAGCUCAACACAGCGUGCCAAAGUGGCUGUGGCUAGACUGCC [A4G G22C] was 0.91; that for GGCGGAGCUCAACACAGCGUGGCAAAGUGGCUGUCGCUAGACUGCC [A4G G35C] was 0.1. The value for GGCGGAGCUCAACACAGCGUGGCAAAGUGGCUGUAGCUAGACUGCC [A4G G35A] was 0.15. As for GGCGGAGCUCAACACAGCGUGGCAAAGUGGCUGUUGCUAGACUGCC [A4G G35U], the self-cleavage came to 0.19. The value for GGCGGAGCUCAACACAGCGUGGCAAAGUGGCUGUGGCUAUACUGCC [A4G G40U] was 0.15; that for GGCGGAGCUCAACACAGCGUGGCAAAGUGGCUGUGGCUAAACUGCC [A4G G40A] was 0.13; that for GGCGGAGCUCAACACAGCGUGGCAAAGUGGCUGUGGCUACACUGCC [A4G G40C] was 0.1. The value for GGCGGAGCUCAACACAGCUUGGCAAAGUGGCUGUGGCUAGACUGCC [A4G G19U] was 0.56; that for GGCGGAGCUCAACACAGCCUGGCAAAGUGGCUGUGGCUAGACUGCC [A4G G19C] was 0.23. Regarding GGCGGAGCUCAACACAGCGUGGCAAAGUGGCCGUGGCUAGACUGCC [A4G U32C], the self-cleavage turned out to be 0.15.

Consider GGCGGAGCUCAACACAGCGUGGCAAAGUGGCGGUGGCUAGACUGCC [A4G U32G], for which the self-cleavage turned out to be 0.08. The value for GGCGGAGCUCAACACAGCGUGGCAAAGUGGCAGUGGCUAGACUGCC [A4G U32A] was 0.06; that for GGCGGAGCUCAACACAGCGUGGCAAAGUCGCUGUGGCUAGACUGCC [A4G G29C] was 0.12. As to GGCGGAGCUCAACACAGCGUGGCAAAGUUGCUGUGGCUAGACUGCC [A4G G29U], the self-cleavage worked out at 0.63. GGCGGAGCUCAACACAGCGUGGCAAAGUAGCUGUGGCUAGACUGCC [A4G G29A]: the self-cleavage amounted to 0.36. The value for GGCUGAGCUCAACACAGCGUGGCAAAGUGGCUGUGGCUAGACUGCC [A4U] was 0.29; that for GGCGGAGCUCAACACAGCGUGGCAAAGUGACUGUGGCUAGACUGCC [A4G G30A] was 1.37; that for GGCGGAGCUCAACACAGCGUGGCAAAGUGCCUGUGGCUAGACUGCC [A4G G30C] was 0.91. Take GGCGGAGCUCAACACAGCGUGGCAAAGUGUCUGUGGCUAGACUGCC [A4G G30U]: the self-cleavage was determined as 0.45.

With GGCGGAGCUCAACACAGCGUGGCAAAGUGGCUGUGCCUAGACUGCC [A4G G36C], the self-cleavage stood at 0.16. With GGCGGAGCUCAACACAGCGUGGCAAAGUGGCUGUGUCUAGACUGCC [A4G G36U] the figure was 0.09. Regarding GGCGGAGCUCAACACAGCGUGGCAAAGUGGCUGUGACUAGACUGCC [A4G G36A], the self-cleavage came out at 0.54.

GGCGGAGCUCAACACAGCGUGGCAAAGUGGCUGUGGCUAGACGGCC [A4G U43G]: the self-cleavage stood at 1.35.

In the case of GGCGGAGCUCAACACAGCGUGGCAAAGUGGCUGUGGCUAGACAGCC [A4G U43A], the self-cleavage was found to be 0.12. The value for GGCGGAGCUCAACACAGCGUGGCAAAGUGGCUGUGGCUAGACCGCC [A4G U43C] was 1.34. The value for GGCGGAGCUCAACACAGCGUGGCAAAGUGGCUGUGGCGAGACUGCC [A4G U38G] was 0.04. The value for GGCGGAGCUCAACACAGCGUGGCAAAGUGGCUGUGGCAAGACUGCC [A4G U38A] was 0.23; that for GGCGGAGCUCAACACAGCGUGGCAAAGUGGCUGUGGCCAGACUGCC [A4G U38C] was 0.31; that for GGCGGAGCUCAACACAGCGUGGCAAAGUGGCUGUGGCUAGACUACC [A4G G44A] was 0.48. Consider GGCGGAGCUCAACACAGCGUGGCAAAGUGGCUGUGGCUAGACUUCC [A4G G44U], for which the self-cleavage came out at 0.16. In the case of GGCGGAGCUCAACACAGCGUGGCAAAGUGGCUGUGGCUAGACUCCC [A4G G44C], the self-cleavage was 0.08.
